Test results from US20190185531A1.

Legend:
Assay in all cases: competition fluorescence anisotropy against fluoresceinated Bim BH3
[1] = molecular target: Bcl-2 (c-myc-tagged) (human) (UniProt P10415)
[2] = molecular target: T1, Bcl-w (c-myc-tagged) (human) (UniProt Q92843)
T1 sequence (looked up): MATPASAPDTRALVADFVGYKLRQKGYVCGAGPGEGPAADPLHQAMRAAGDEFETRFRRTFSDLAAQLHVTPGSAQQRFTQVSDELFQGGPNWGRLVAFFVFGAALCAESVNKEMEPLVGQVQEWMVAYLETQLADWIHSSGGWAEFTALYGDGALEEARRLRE

[3] = molecular target: Bcl-xL (c-myc-tagged) (human) (UniProt Q07817)
Sequence of Bcl-xL (c-myc-tagged) (human) (Q07817 1-209): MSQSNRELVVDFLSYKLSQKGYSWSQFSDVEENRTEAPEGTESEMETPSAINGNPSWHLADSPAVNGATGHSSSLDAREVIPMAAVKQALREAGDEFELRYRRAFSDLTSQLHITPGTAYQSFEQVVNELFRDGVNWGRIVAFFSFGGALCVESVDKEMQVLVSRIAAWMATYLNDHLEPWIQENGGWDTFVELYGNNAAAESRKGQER

[4] = molecular target: human Mcl-1 (c-myc-tagged) (human) (UniProt Q07820)
Sequence of human Mcl-1 (c-myc-tagged) (human) (Q07820 172-327 limits assumed): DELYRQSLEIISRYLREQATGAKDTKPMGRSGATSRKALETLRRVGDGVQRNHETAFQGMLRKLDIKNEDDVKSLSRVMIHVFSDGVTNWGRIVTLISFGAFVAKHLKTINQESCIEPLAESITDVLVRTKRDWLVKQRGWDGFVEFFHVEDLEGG

Measured: fold specificity for Bfl-1 relative to this protein

Sequence of Bcl-2 (c-myc-tagged) (human) (P10415 1-217 limits assumed): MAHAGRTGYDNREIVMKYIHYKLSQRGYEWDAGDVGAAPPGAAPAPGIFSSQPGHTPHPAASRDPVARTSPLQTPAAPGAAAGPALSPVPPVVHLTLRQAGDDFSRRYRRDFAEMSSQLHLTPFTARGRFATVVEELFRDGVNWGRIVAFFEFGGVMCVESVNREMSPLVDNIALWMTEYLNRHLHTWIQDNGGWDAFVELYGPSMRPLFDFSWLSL

Ac-QWVREIAAGLRLAADNVNAQLER-NH2 [FS1]
> 150 fold: all assays above
